Results from article doi:10.1101/2022.11.11.516098.

What was measured:
MLEΔG [1] = target: T1, MLEΔG (UniProt P24785 1-1158); experiment: cryo-EM
MLEΔGin = MLEΔGin (UniProt P24785 1-1158, E195C;S633C); experiment: fluorescence polarization
MLEΔG [2] = target: T1, MLEΔG; experiment: fluorescence polarization

UUUUUUUUUU (ssRNA) [U10 RNA]: binds (MLEΔG [1]).

Binder CCUCUUUCUUUC (ssRNA) [UUC RNA (fluorescein)] has an IC50 (MLEΔGin) of 280 ± 19 nM and an IC50 (MLEΔG [2]) of 302 ± 43 nM.

B1: SL7 (SL7mod-UUC) RNA (structured_RNA)
RNA: GUGUAAAAUGUUGCUAGCAAAUAUAUAUGCUAGUAACGUUUUACGCCCUCUUUCUUUCUU
B1 was tested, and the “apparent K (half saturation)” value (MLEΔG [2]) was 16 nM.
